Data reported in patent publication US20180187173.

What was measured:
[1] = system: ZFN SBS 33488 (engineered); experiment: cell_activity; conditions: pair with 33501, K562 cells; 37.5% in human CD34+ cells
[2] = system: ZFN pair 33488/33501 (engineered); experiment: cell_activity; conditions: K562 cells

Question: With “GGAGTCAGGTGCACCATGGTGTCTGTTT (double strand) [HBB left ZFN half-site]” as the substance, how does the activity [1] read?
Answer: 66.6 % indels

Question: HBBP1 paralog site was tested. Which activity ([2]; 0.005% in CD34+ cells) did it give?
Answer: 0.024 % indels

Question: How did the activity ([2]; off-target paralog, 28.6% in CD34+ cells) turn out when “CACCATGGTGCATCTGACTCCTGAGGAGAAGACTGCTGTCA (double strand) [HBD paralog site]” was run?
Answer: 34 % indels

Question: With HBE1 paralog site as the substance, how does the activity ([2]; 0.000% in CD34+ cells) read?
Answer: 0 % indels

Question: For HBG2 paralog site, which activity ([2]; 0.005% in CD34+ cells) is on record?
Answer: 0.013 % indels

Question: HBG1 paralog site was tested. Which activity ([2]; 0.000% in CD34+ cells) did it give?
Answer: 0.006 % indels
